# According to patent CN116440263A (SHANGHAI JUNSHI BIOSCIENCES CO LTD; JUNMENG BIOSCIENCES CO …, dated 2023):
# B1: huJS007-47 (antibody, V domains shown)
# VH: QVQLQESGPGLVKPSQTLSLTCTVSAYSITSGYYWNWIRQHPGKGLEWIGYIGYDGSNNYNPSLKSRVTISRDTSKNQFSLKLSSVTAADTAVYYCARDYYSGYFDSWGQGTTLTVSS
# VL: DIQMTQSPSSLSASVGDRVTITCRASQNVGTYVAWYQQKPGKVPKPLIYSTSYRYSGVPSRFSGSGSGTDFTLTISSLQPEDVATYFCHQYDTYPLTFGAGTKLELKR
# Biological target: T1, His标签的重组人CTLA-4抗原蛋白 (human, UniProt P16410 36-161, limits assumed)
# T1 construct: Made in-house (君盟自制); also called 重组人CTLA-4蛋白; 人CTLA-4蛋白; not shown: His tag
# T1 sequence (looked up): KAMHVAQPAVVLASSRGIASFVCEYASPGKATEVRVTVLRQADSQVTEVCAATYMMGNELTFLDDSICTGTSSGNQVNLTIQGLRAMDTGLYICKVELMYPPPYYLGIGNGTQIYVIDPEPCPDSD
# Test: SPR (Biacore T200): antibody captured on goat anti-human Fc CM5 chip, His-tagged CTLA-4 0.75-24 nM as analyte, kinetic fit
binder,measurement,value
B1,Kd,0.206 nM
same,koff,0.000169 s⁻¹
same,kon,818000 M⁻¹ s⁻¹
